# Laboratory results reported in patent US20240010750A1 (Bayer, published 2024).
# B1: TPP-12387 hIgG1 (antibody, V domains shown)
# VH: EVQLLESGGGLVQPGGSLRLSCAASGFTFDDYAMSWVRQAPGKGLEWVSAIGTGGGTYYADSVKGRFTISRDNSKNTLYLQMNSLRAEDTAVYYCAREYYDSSGYYHLDYWGQGTLVTVSS
# VL: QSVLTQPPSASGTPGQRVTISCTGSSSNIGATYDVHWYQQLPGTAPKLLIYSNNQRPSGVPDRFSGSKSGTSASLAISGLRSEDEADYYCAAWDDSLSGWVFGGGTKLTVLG
# notes: Fully human IgG1 lambda from the BioInvent n-CoDeR Fab lambda library; parental lead antibody
# Experiments:
# human alpha2-Antiplasmin [1] = molecular target: T1, human alpha2-Antiplasmin (human, UniProt P08697 40-491); assay: ELISA, coated antigen, 2nd exp.
# T1 construct: Bought (antibodies online, ABIN2544306); also called human A2AP; a2AP
# T1 sequence: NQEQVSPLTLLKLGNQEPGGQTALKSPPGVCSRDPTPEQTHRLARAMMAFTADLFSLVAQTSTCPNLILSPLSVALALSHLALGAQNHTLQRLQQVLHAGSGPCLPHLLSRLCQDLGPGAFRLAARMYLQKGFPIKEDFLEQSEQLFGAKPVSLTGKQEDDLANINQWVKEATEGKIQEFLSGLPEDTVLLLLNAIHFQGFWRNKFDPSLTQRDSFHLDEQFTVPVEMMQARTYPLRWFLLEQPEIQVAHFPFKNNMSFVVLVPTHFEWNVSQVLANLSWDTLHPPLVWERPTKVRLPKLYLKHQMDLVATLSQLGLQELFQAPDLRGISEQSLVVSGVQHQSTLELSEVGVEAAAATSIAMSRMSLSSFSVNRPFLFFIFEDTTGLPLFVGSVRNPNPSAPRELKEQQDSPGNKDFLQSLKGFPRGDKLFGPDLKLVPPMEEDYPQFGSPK
# Description: (§1) A standard ELISA format was used for analyzing the binding affinity of Fabs of this invention to human and rabbit alpha-2-Antiplasmin, respectively. Antigens were coated to black 384 well Maxisorp microtiter plates (Nunc; catalogue number 460518), diluted to a concentration of 1 μg/ml in 1× Coating Buffer (Candor Bioscience; catalogue number 121125). Plates were incubated overnight at 4° C. After overnight incubation, plates were washed 2× with 50 μl/well using PBS+0.05% Tween 20. Following this, 50 μl/well of blocking buffer (Smart Block; Candor Bioscience; catalogue number 113500) was added and the plates were incubated for 1 hour at room temperature. Afterwards, plates were washed for 3× using […] PBS+0.05% Tween 20 buffer. Fabs of this invention were added at different concentrations in a final volume of 30 μl/well. Plates were incubated for 1 hour at room temperature. Following this incubation step, plates were washed for 3× using 50 μl/well of a PBS+0.05% Tween 20 buffer. For the detection of bound Fabs and full-length antibodies, the anti-Human Lambda Light Chains (Bound and Free)—Peroxidase antibody (Sigma; catalogue number A5175) was diluted by the factor of 1:10.000 in 10% Blocking Buffer. […]
# (§2) For measurement, the Infinite f500 reader (Tecan) was used. Measurement mode: Fluorescence; Top reading; Ex 535 nm; Em 590 nm. […]
# [2] = molecular target: T2, rabbit alpha2-Antiplasmin (rabbit (Oryctolagus cuniculus)); assay: ELISA, coated antigen, 2nd exp.
# T2 construct: Made in house in HEK293 cells, purified by Ni-IMAC and SEC (a His tag is implied but not described); also called rabbit A2AP; Oryctolagus cuniculus A2AP
# T2 chain: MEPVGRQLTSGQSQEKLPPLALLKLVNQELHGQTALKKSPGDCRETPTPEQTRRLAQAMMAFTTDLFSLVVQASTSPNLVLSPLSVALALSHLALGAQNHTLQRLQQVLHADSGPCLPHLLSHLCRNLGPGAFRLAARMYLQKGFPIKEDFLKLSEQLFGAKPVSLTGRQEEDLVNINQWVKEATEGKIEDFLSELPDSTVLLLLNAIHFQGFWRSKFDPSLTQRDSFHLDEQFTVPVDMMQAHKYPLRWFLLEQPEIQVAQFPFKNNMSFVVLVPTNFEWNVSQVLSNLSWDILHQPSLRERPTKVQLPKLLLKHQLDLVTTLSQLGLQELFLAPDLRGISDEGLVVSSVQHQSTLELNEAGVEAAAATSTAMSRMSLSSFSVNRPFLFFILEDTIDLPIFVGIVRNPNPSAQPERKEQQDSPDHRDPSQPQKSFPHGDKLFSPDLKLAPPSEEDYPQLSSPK
# Description: as §1, §2
# [3] = molecular target: T3, cynomolgus alpha2-Antiplasmin (cynomolgus (Macaca fascicularis), UniProt P08697 28-491 (human entry)); assay: cell-based or functional assay
# T3 chain: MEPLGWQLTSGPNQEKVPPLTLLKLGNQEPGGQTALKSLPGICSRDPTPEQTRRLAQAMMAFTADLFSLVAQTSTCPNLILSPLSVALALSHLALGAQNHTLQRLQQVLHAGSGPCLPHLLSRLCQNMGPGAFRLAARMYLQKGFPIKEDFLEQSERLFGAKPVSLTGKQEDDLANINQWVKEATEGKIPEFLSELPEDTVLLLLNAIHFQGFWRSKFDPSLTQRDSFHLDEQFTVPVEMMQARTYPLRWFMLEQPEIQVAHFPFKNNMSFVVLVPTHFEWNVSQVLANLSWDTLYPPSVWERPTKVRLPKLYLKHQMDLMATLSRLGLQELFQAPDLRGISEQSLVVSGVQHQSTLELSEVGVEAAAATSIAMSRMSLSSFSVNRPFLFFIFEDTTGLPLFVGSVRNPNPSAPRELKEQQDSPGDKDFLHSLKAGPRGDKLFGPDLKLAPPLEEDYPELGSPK
# [4] = molecular target: T3, cynomolgus alpha2-Antiplasmin; assay: ELISA, coated antigen (FIG. 6.1 legend)
# human alpha2-Antiplasmin [5] = molecular target: T1, human alpha2-Antiplasmin; assay: SPR Biacore T200, antibody captured on protein G chip, A2AP as analyte, 25 C
# Description: (§3) Binding assays were performed on a Biacore T200 instrument at 25° C. with a protein G sensor chip and assay buffer HBS-EP+. Antibodies were captured to ˜150 RU and analytes were used at concentrations between 1.56 and 200 nM for full kinetics. As interaction partner, alpha2-Antiplasmin from human, cynomolgus and rabbit was used. Regeneration was performed with glycine-HCl pH 1.5. Kinetic parameters were derived by fitting experimental sensorgrams to a 1:1 Langmuir binding model.
# [6] = molecular target: T2, rabbit alpha2-Antiplasmin; assay: as above
# Description: as §3
# [7] = molecular target: T3, cynomolgus alpha2-Antiplasmin; assay: as above
# Description: as §3
binder,measurement,setting,value
B1,EC50,human alpha2-Antiplasmin [1],100 nM
same,EC50,[2],6.07 nM
same,"EC50 (read off the curve); function blocking assay (Example 4), RFU of plasmin substrate cleavage",[3],~200 nM
same,EC50,[4],99 nM
same,Kd,human alpha2-Antiplasmin [5],180 nM
same,Kd,[6],43 nM
same,Kd,[7],100 nM
